Results as given in the DeepSol protein solubility set.

Assay: soluble on expression in E. coli; label from the status in PepcDB or PDB records

Soluble on expression in E. coli, soluble:
MEASMERFDNAPETALAWHRQGLGAALATVVETWGSAPRRVGAQLVIGGDGRIEGSVSGGCVEGAVIVEALEALEEGQARLLEFGVSDEDAFAVGLACGGTIRVLVEPVGQVLSEVMLAELVAARASRQALAYVVDTARGTRALVRDAYPERMRMDRSGFDEDGRTFVAVHNPPLRLIVVGAVHIAQALVPMARIAGYDPVVIDPREAFASDARFPGETILHDWPDEAVAKLGLDARTALVLLTHDPKLDDPALEAALAADVFYIGALGSTRTHAKRVARMQEAGFTEAQIGRIHGPVGLDIGAAGPAEIAVAILAQMTAVLRGRA
MANMKENEKVIMEKGIHTDFKENMTYGEYLQLDSLLSSQKRLSDHHDEMLFIVIHQASELWMKLILHELNAAIEFIKQDKLQPAFKMLARVSKIQSQIIQSWDILATLTPSEYIEFRDSLGQASGFQSYQYRMIEYALGYKTPHALKIYEKDPELHARLHKALHAPSLYDVAIQALVKEGFPIHKDVLNRDITQPYEEDATVEAAWLEVYADVKKYWNLYQLAEKLIDIEDWLQQWRFRHMKTVERIIGHKMGTGGSSGVSYLKRVLDQQFFPELWNVRTKLMAGDPNSLEHHHHHH
SNAAKPLPKEMEDFVQSSGENGVVVFSLGSMVSNMTEERANVIASALAQIPQKVLWRFDGNKPDTLGLNTRLYKWIPQNDLLGHPKTRAFITHGGANGIYEAIYHGIPMVGIPLFADQPDNIAHMKARGAAVRVDFNTMSSTDLLNALKRVINDPSYKENVMKLSRIQHD
MSLRILLALASLSGNTREVARVIRARCEERGHRVDWIETDLQTLAGQALDPHTYTLFLLGTWTDNAGRTPFEMKRFIVELLELIGKPPSVAVFGTGETQWGQEYYCGAVHRISDFFASRFPRLLIEQMPHGERDALAIVEWTDQVLDQCNKDSDADHYRYVAEGHHHHHH
MSLAQRLATGKAGSIGLVMPTAPGHQSDVHFGEFLAGLGEEAVRHDFHFVIMPSDPDDEVAALRRLAISGNVDALFIAYMRGHDPRLAMLKSLSMPYVVHGRSFGAELDYPYLDIDNEGAFYDATRLLLQLGHTRFALMNGPMHLDFAIRRRNGVISALAERGLTLEEDCMSHALMTDEQGLLAMERFLQLPERPTAILCSSTVMALGAIRAVNQAGLRLGEDVSLIAHDDVLPLLKPENFSVPLTTTRSSLRAAGVRIAQRLIGTVKQAGPFPEQELWKTELIVRASTGPAPQEGHHHHHH

Soluble on expression in E. coli, not soluble:
SLNSLASHTFISGSTGTGKSNTVYEILDEVRKHGVKFLVVEPVKGEYKHIFGNDENVSVYGTNPELSDLLRINPFAFPKGIHVLEHLDRLIEIFNVCWPMYAAMPAVLKNAVERAYEDSGWDLLKSINSYGDLYPTFADVTRNIKEIIDSSEYDNENKGAYKGSLLTRLESLTNGINGMIFTNQAITDKELFDENVIIDLSRVGSTETKSLIMGMLVLKLQEYRMTHTDSLNNILKHVTVLEEAHNILKRTSNEQSMEDSNLVGKSVEMIANGIAEMRTYGEGFIIADQAPGLMDMAVIRNTNTKIIMRLPDFSDRELVGKSANL
MQSSKVVLLEPRTYSEAQGIADHLKGRRAVVINLQRMSTDQAVRIVDFLSGTVYAIGGDIQKIGPKTFMCTPENVDIVGAISELFGEEEETNIKRWLEHHHHHH
MPKRNDIKTILVIGSGPIIIGQAAEFDYAGTQACLALKEEGYRVILVNSNPATIMTDKEIADKVYIEPLTHDFIARIIRKEQPDALLPTLGGQTGLNMAIQLHESGVLQDNNVQLLGTELTSIQQAEDREMFRTLMNDLNVPVPESDIVNTVEQAFKFKEQVGYPLIVRPAFTMGGTGGGICHNDEELHEIVSNGLHYSPATQCLLEKSIAGFKEIEYEVMRDKNDNAIVVCNMENIDPVGIHTGDSIVVAPSQTLSDVEYQMLRDVSLKVIRALGIEGGCNVQLALDPHSFDYYIIEVNPRVSRSSALASKATGYPIAKLAAKIAVGLTLDEMLNPITGTSYAAFEPTLDYVISKIPRFPFDKFEKGERELGTQMKATGEVMAIGRTYEESLLKAIRSLEYGVHHLGLPNGESFDLDYIKERISHQDDERLFFIGEAIRRGTTLEEIHNMTQIDYFFLHKFQNIIDIEHQLKEHQGDLEYLKYAKDYGFSDKTIAHRFNMTEEEVYQLRMENDIKPVYKMVDTCAAEFESSTPYYYGTYETENESIVTDKEKILVLGSGPIRIGQGVEFDYATVHAVWAIQKAGYEAIIVNNNPETVSTDFSISDKLYFEPLTEEDVMNIINLEKPKGVVVQFGGQTAINLADKLAKHGVKILGTSLENLNRAEDRKEFEALLRKINVPQPQGKTATSPEEALANAAEIGYPVVVRPSYVLGGRAMEIVDNDKELENYMTQAVKASPEHPVLVDRYLTGKEIEVDAICDGETVIIPGIMEHIERAGVHSGDSIAVYPPQTLTEDELATLEDYTIKLAKGLNIIGLINIQFVIAHDGVYVLEVNPRSSRTVPFLSKITDIPMAQLAMRAIIGEKLTDMGYQEGVQPYAEGVFVKAPVFSFNKLKNVDITLGPEMKSTGEVMGKDTTLEKALFKGLTGSGVEVKDHGTVLMTVSDKDKEEVVKLAQRLNEVGYKILATSGTANKLAEYDIPAEVVGKIGGENDLLTRIQNGDVQIVINTMTKGKEVERDGFQIRRTTVENGIPCLTSLDTANALTNVIESMTFTMRQM
MAHHHHHHMASFNSLGSGAGDSAEAVTRLQEVLRDICATERRQEKTWLNVQPCVLNAVKLLATTAQVYAERVRQLEDVLQRLQQYTTVLVRDREVKEERYRLDAAAHREEADELWKRLLRLEAQQQEPSLQIDQRASEAFKASCKVAVEARVAPLQQELQGLRHRLKALTLSRPYSSHYNRHVRSSSVASNSSALTMRDHYYAGSDGVAASQHHHHSAASSSSTSSLLSLASSTASSLDRHEQYPRRGRIETTSAPAFTPRALASATAAASPSTQRMMREVQRLRRQWQHFLQSVPAALAQGKGSCRAGLRRRDISGSPSRRLSRLTSKGGRRDLTGGLSDVTRANGEGMESIRGSSPQPFYVPAHHPPSSSPTDAVLPKYSSGPTRARSGARATESSTALPASGRRVRWYWLGDAHSHFSTAVRRAENDFAAAKPLSERPQPALSGVSPALPWTECHAFDGRTDCWYSLGTWPTHRRHLREVERAVEEGASRNSGDVSLGWLKWTLSLVSWPDTSTMLVHRAGIYMVRVCLVRHCASASLCSGAGRAESAGHDCGSGGALALCMNGVAVAGLREVVTHALLYTHPATSPADSAAPWWVTRGRSRSTCAYAGNYCSAVDGAAHSPACASPGGSPSRRRFHRDIADATQRQRPCCEPAQLHTNTLTACLFLPAGATLQVRCRGLHNTKTIHEAFCELEYVV
MTITNSKAEAWELIGNQFWTIGRVAARPSDRENDIFLENIVPGSTVAVIGASTRFLIEKALERGASVTVFDFSQRMCDDLAEALADRCVTIDLLDITAEIPKELAGHFDFVLNDRLINRFTTEEARRACLGMLSLVGSGTVRASVKLGFYDIDLKLIEYGEQSGTLAKFFDPSDKTFHFREAGDVLDRALVPHGLIDKPTLLEWYRRRGKETRFDDEDVRAL
MDLQIIQNKIFEVRGCRVMLDFHLAELYQVETRALKQAVKRNLSRFPSDFAFQLTKDEWQGLITNCDKFPENIRHTPTPPLAFLEQGVAMLSSVLRSQTAIDVNISIMRAFVLMRQMSIGYEELLKRIEELEQSTDAQFSEVYQALTQLLSKPDPKPRKPIGYRTYDE
MDYDVLILGGGIIGCSVAYELSKYNLNIALIEKDFDIADDVSFVNTAIVYDGSECKDNLMSYLENMGNMMLPEITKKLNVPFKRVGHLTIADNDETVRIIEENYKRAKSRGINNIYLIDEKRAREIEPNYKGEIKKAMYSENIAVTSPYDLAIGFAEIAYDNGVSFRLEEIVLDIQSIAKGFKVTTNKNKFTCRFVINTTPGEHYTIDQDKDYEQKNALKTYYLLLNDEIKEKTSNIVVKLKNEEEFIIQKNTVNGDTLIGINSNNSLGFMKSLKIAKEMINSISRKHVKDIFYDNHNQDRLIIDDSRKNKGYIKVMGNHYGEVTIAPAVSKIICDEIIDKLNCSLNKNFVDKRREFYRFRELSNEERNELISLDKRYGKIVCLCNGISEGEIVDCIRRPLGARTVEGVKRRTGATFGTCHGAYCISKIINILARELEKKPTEIVEDSKNSKVLASRIKEFDRVLEHHHHHH
